This test addresses T1, Ela1^(1-143) of the Elc1/Ela1^(1-143) complex (separate chains) (S. cerevisiae, UniProt P53861 1-143).
T1 sequence (looked up): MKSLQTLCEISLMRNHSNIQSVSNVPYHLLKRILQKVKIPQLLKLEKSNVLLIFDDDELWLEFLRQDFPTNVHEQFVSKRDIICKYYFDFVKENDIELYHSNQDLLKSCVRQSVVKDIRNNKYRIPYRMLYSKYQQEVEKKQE
Put plainly: SEC + AUC.

The source of these data is paper PMC9546532 (Proceedings of the National Academy of Sciences of the …, 2022).

B1: Elc1 of the Elc1/Ela1^(1-143) complex (separate chains) (natural protein, S. cerevisiae, UniProt Q03071 1-99, looked up)
chain: MSQDFVTLVSKDDKEYEISRSAAMISPTLKAMIEGPFRESKGRIELKQFDSHILEKAVEYLNYNLKYSGVSEDDDEIPEFEIPTEMSLELLLAADYLSI
On to B1, for which the binding result is “binds”.
